Key:
[1] = molecular target: T1, recombinant human serum albumin (HSA) produced in rice (Sigma-Aldrich) (human, UniProt P02768 25-609); assay: ELISA, capture of the ABD fusion on HSA-coated plate
T1 construct: also called recombinant HSA
Experimental: (§1) ELISA was performed at ambient temperature in a 96-well Maxisorb microtiter plate (Nunc, Langenselbold, Germany).
(§2) Then, the wells were blocked with […] Roti-Block (Carl Roth, Karlsruhe, Germany) diluted 1:10 in ddH₂O for 1 h and washed three times with PBS containing 0.1% v/v Tween 20 (PBS/T). After that, the purified ProtL^Caf-ABD fusion protein from Example 11 was applied in a dilution series in PBS/T and incubated for 1 h to effect complex formation between the ABD moiety and the pre-adsorbed HSA. The wells were then washed three times with PBS/T and incubated with 50 μl of a 1:1000 dilution in PBS/T of the aforementioned mouse anti-6×His Ig-AP conjugate.

[2] = molecular target: T2, mouse anti-6×His antibody alkaline phosphatase (AP) conjugate (Arigo Biolaboratories); assay: ELISA: ProtL-ABD in a dilution series captured on coated HSA, mouse anti-6xHis Ig-AP conjugate (1:1000) applied, kept in daylight, AP activity as dA/dt [left graph]
T2 construct: also called mouse anti-6×His Ig-AP conjugate; Ig-AP conjugate
Experimental: as §1, §2

[3] = molecular target: T2, mouse anti-6×His antibody alkaline …; assay: ELISA: ProtL-ABD in a dilution series captured on coated HSA, mouse anti-6xHis Ig-AP conjugate (1:1000) applied, UV light of 365 nm for 5 min before the washes, AP activity as dA/dt [left graph]
Experimental: as §1, §2

T1 sequence (P02768 25-609 limits assumed): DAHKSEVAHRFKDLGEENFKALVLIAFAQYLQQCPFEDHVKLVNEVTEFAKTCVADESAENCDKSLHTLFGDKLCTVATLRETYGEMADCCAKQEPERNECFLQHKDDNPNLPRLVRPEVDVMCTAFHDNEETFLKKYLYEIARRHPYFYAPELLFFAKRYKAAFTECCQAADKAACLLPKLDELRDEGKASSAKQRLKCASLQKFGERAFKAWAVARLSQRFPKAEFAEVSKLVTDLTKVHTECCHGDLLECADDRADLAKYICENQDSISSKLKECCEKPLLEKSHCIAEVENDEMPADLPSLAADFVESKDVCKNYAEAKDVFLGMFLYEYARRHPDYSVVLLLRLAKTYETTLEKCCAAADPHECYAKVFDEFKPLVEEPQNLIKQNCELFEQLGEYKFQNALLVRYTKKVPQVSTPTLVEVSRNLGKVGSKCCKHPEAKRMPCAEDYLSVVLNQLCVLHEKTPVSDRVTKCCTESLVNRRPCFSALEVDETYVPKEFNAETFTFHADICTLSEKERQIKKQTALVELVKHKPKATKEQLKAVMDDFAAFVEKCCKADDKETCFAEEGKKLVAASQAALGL

- binding result [1]: binds
- EC50 (read off the curve) [2]: ~40 nM
- EC50 (read off the curve) [3]: ~40 nM
B1: ProtL-ABD fusion protein (other)
chain: MKEEVTIKVNLIFADGKTQTAEFKGTFEEATAKAYAYADLLAKENGEYTADLEDGGNTINIKFAGGAVDANSLAEAKVLANRELDKYGVSDYYKNLINNAKTVEGVKALIDEILAALP
notes: also called protein L-ABD fusion protein; unmodified ProtL-ABD

Source: US20210079037A1 (TECHNISCHE UNIVERSIT T M NCHEN, published 2021)
